# In paper PMC6267984:
# Target: Orai1-CFP (UniProt Q96D31)
# Sequence of UniProt Q96D31 (Q96D31 whole entry): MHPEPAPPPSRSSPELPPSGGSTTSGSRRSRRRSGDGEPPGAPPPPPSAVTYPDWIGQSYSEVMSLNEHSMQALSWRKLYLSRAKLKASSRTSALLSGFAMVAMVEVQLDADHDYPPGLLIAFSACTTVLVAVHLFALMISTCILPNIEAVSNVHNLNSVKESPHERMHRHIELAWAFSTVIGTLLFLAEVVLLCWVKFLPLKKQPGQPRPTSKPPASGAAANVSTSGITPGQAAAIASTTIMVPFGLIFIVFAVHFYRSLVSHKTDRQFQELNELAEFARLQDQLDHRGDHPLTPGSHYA
row,constitutive Ca2+ entry at rest [nM],Substance
1,3.5,STIM1-G379E-ΔK (domain or fragment)
2,6.6,STIM1-G379E (from UniProt Q13586 23-685) (natural protein)
